Molecular target: T1, MEKK3^43–127 (MEKK3–PB1) (UniProt Q99759 43-127)
T1 chain: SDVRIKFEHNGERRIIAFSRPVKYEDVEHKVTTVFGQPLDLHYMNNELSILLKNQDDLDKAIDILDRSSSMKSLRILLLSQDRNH
Test: ITC

B1: NBR1^1–85 (human NBR1–PB1) (domain or fragment)
chain: MEPQVTLNVTFKNEIQSFLVSDPENTTWADIEAMVKVSFDLNTIQIKYLDEENEEVSINSQGEYEEALKMAVKQGNQLQMQVHEG
Kd: 13.3 nM
